19 molecules from patent US20250320312A1 (OXITOPE PHARMA B V, published 2025) can be followed below.

The labels stand for the following.
T1: Peptide 4: Biotin-AGGGGSGGGGSGGGGSAAA-Tyr-acid (N-terminal biotin; C-terminal acid; no PC)
T1 construct: control peptide without PC
T1 peptide: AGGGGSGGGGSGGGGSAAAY

T2: Peptide 8: Biotin-AEAAAKEAAAKEAAAKEAAAKAAA-Tyr-acid (N-terminal biotin; C-terminal acid; no PC)
T2 construct: control peptide without PC
T2 peptide: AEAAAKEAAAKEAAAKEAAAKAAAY

B1: PcOxP_DB01_G05 (scFv, V domains shown)
VH: EVQLLESGGGLVQPGGSLRLSCAASGFTFSSYYMEWVRQAPGKGLEWVAASRNKANEYTTEYADSVKGRFTISRDNSKNTLYLQMNSLRAEDTAVYYCARDYYGSSYWYFDVWGQGTLVTVSS
VL: DIVMTQSPDSLAVSLGERATINCTASESLYSSKHKVHYLAWYQQKPGQPPKLLIYGASNRYIGVPDRFSGSGSGTDFTLTISSLQAEDVAVYYCANFYSYPLTFGGGTKVEIK
notes: scFv in periplasmic extract
B2: PcOxP_DB02_C10 (scFv, V domains shown)
VH: B1 VH with S31D, E57D
VL: B1 VL with N96Q, S99E
notes: scFv in periplasmic extract
B3: PcOxP_DB01_H01 (scFv, V domains shown)
VH: B1 VH with E57L, Y107T
VL: B1 VL with N96Q
notes: scFv in periplasmic extract
B4: PcOxP_DB01_H06 (scFv, V domains shown)
VH: B1 VH with S31D, Y32F, A55G, E57S, E61A
VL: B1 VL with I62D
notes: scFv in periplasmic extract
B5: PcOxP_DB02_B07 (scFv, V domains shown)
VH: B1 VH with S31D, Y32Q, K54N, E57D
VL: B1 VL with Y61Q, N96Q, S99H
notes: scFv in periplasmic extract
B6: PcOxP_DB02_C05 (scFv, V domains shown)
VH: B1 VH with F29A, S31D, Y32F, E57D
VL: B1 VL with N96Q
notes: scFv in periplasmic extract
B7: PcOxP_DB02_C08 (scFv, V domains shown)
VH: B1 VH with S31D, Y32P, E57D, S106P
VL: B1 VL with T24G, H34S, N96Q
notes: scFv in periplasmic extract
B8: PcOxP_DB02_C04 (scFv, V domains shown)
VH: B1 VH with F27Q, S31D, Y32F, E57G, A63T
VL: B1 VL with S58N, N96Q
notes: scFv in periplasmic extract
B9: PcOxP_DB01_H02 (scFv, V domains shown)
VH: B1 VH with E57D
VL: B1 VL with E27S, N96Q
notes: scFv in periplasmic extract
B10: PcOxP_DB02_B04 (scFv, V domains shown)
VH: B1 VH with S31D, A55W, E57D
VL: B1 VL with N96Q
notes: scFv in periplasmic extract
B11: PcOxP_DB02_A04 (scFv, V domains shown)
VH: B1 VH with F27D, S31D, Y32F, A55W, E57D
VL: B1 VL with N96Q
notes: scFv in periplasmic extract
B12: PcOxP_DB02_C03 (scFv, V domains shown)
VH: B1 VH with S31D, N53W, E57D
VL: B1 VL with N96Q, S99V
notes: scFv in periplasmic extract
B13: PcOxP_DB01_H03 (scFv, V domains shown)
VH: B1 VH with S31D, Y32H, N53G, A55G, E57S, E61A
VL: B1 VL with S58G, N96Q, S99H
notes: scFv in periplasmic extract
B14: PcOxP_DB02_A05 (scFv, V domains shown)
VH: B1 VH with F29G, S31D, Y32F, A55W, E57D
VL: B1 VL with S58G, N96Q
notes: scFv in periplasmic extract
B15: PcOxP_DB02_D02 (scFv, V domains shown)
VH: B1 VH with S31D, E57D, V112T
VL: B1 VL with A25S, L29V, K33S, N96Q, S99Y
notes: scFv in periplasmic extract
B16: PcOxP_DB01_G06 (scFv, V domains shown)
VH: B1 VH with S31D, A55W, E57D
VL: B1 VL with I62S, N96Q
notes: scFv in periplasmic extract
B17: PcOxP_DB01_G10 (scFv, V domains shown)
VH: B1 VH with S31D, Y32F, A55N, E57D
VL: B1 VL with T24K, E27Q, V36K, I62P, N96Q, S99R
notes: scFv in periplasmic extract
B18: PcOxP_DB02_C12 (scFv, V domains shown)
VH: B1 VH with S31D, Y32H, E57D
VL: B1 VL with S58H
notes: scFv in periplasmic extract
B19: PcOxP_DB01_G07 (scFv, V domains shown)
VH: B1 VH with S31D, A55Y, E57D
VL: B1 VL with S31G, N96Q
notes: scFv in periplasmic extract

Where a chain is given by its changes, count along the chain named.

The target of one experiment is BSA (UniProt P02769). The experiment can be described thus: scFv ELISA.
Chain of BSA (P02769 25-607 limits assumed): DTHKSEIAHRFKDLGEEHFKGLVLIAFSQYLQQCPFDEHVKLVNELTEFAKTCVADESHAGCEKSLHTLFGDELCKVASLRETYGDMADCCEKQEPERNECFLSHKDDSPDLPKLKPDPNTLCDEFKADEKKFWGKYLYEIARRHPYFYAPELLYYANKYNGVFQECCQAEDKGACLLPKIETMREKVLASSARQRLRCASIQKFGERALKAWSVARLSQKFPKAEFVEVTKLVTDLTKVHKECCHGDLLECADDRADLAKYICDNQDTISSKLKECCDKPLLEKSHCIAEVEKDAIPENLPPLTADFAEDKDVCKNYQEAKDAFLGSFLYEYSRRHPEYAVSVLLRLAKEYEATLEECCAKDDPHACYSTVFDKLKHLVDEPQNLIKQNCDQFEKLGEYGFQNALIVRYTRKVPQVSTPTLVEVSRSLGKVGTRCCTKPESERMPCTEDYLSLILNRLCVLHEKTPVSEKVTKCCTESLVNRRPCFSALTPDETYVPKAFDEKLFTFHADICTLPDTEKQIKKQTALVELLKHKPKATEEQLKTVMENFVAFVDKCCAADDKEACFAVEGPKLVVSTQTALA
Take B1: the OD450 came out at 0.08 OD450.

B2 displayed an OD450 of 0.06 OD450.

Regarding B3, the OD450 came out at 0.09 OD450.

The molecule B4 yielded an OD450 of 0.11 OD450.

B5 yielded an OD450 of 0.06 OD450.

The molecule B6 registered an OD450 of 0.06 OD450.

Regarding B7, the OD450 was determined as 0.06 OD450.

Take B8: the OD450 stood at 0.08 OD450.

B9 registered an OD450 of 0.1 OD450.

With B10, the OD450 was 0.08 OD450.

The molecule B11 displayed an OD450 of 0.09 OD450.

B12 registered an OD450 of 0.1 OD450.

In the case of B13, the OD450 stood at 0.1 OD450.

Take B14: the OD450 was found to be 0.07 OD450.

Turning to B15, the OD450 was found to be 0.05 OD450.

In the case of B16, the OD450 worked out at 0.06 OD450.

B17 displayed an OD450 of 0.1 OD450.

B18: the OD450 came out at 0.07 OD450.

On to B19, for which the OD450 was 0.07 OD450.

The target of the next experiment is Peptide 1: Biotin-…-[Tyr(PC)]-acid. Put plainly: scFv ELISA. (In an ELISA, binding on a coated surface is turned into a signal by an enzyme label.)
B1 displayed an OD450 of 0.69 OD450.

The molecule B2 registered an OD450 of 0.44 OD450.

Regarding B3, the OD450 was found to be 0.82 OD450.

Molecule B4 came in with an OD450 of 0.96 OD450.

B5: the OD450 was 0.4 OD450.

Take B6: the OD450 amounted to 0.64 OD450.

Take B7: the OD450 came out at 0.22 OD450.

B8 yielded an OD450 of 0.37 OD450.

Molecule B9 had an OD450 of 0.74 OD450.

B10 yielded an OD450 of 0.75 OD450.

B11: the OD450 amounted to 0.33 OD450.

Regarding B12, the OD450 turned out to be 0.54 OD450.

Take B13: the OD450 turned out to be 0.46 OD450.

B14 gave an OD450 of 0.99 OD450.

Molecule B15 had an OD450 of 0.16 OD450.

For the molecule B16, the OD450 is 0.73 OD450.

With B17, the OD450 stood at 0.71 OD450.

B18 had an OD450 of 0.97 OD450.

With B19, the OD450 was 0.46 OD450.

The next experiment deals with Peptide 5: Biotin-…-[Tyr(PC)]-acid. The experiment can be described thus: scFv ELISA.
On to B1, for which the OD450 is 1.24 OD450.

With B2, the OD450 was 0.92 OD450.

B3: the OD450 was determined as 1.23 OD450.

B4 yielded an OD450 of 1.79 OD450.

With B5, the OD450 worked out at 0.77 OD450.

B6 registered an OD450 of 0.92 OD450.

Turning to B7, the OD450 was found to be 0.39 OD450.

B8 returned an OD450 of 0.75 OD450.

B9 displayed an OD450 of 1.1 OD450.

As for B10, the OD450 was determined as 1.32 OD450.

The molecule B11 returned an OD450 of 0.82 OD450.

For the molecule B12, the OD450 worked out at 0.61 OD450.

In turn, B13 registered an OD450 of 1.29 OD450.

In the case of B14, the OD450 amounted to 1.24 OD450.

In the case of B15, the OD450 is 0.27 OD450.

Molecule B16 displayed an OD450 of 1.32 OD450.

In the case of B17, the OD450 stood at 1.52 OD450.

In turn, B18 gave an OD450 of 1.58 OD450.

Regarding B19, the OD450 is 1.2 OD450.

The target of another experiment is T1, Peptide 4: …. The experiment can be described thus: scFv ELISA. The essentials:
(§1)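 Bound scFv was read as OD450 after HRP–anti-V5 detection, TMB development and HCl stop. PPE with BSA was incubated 1 h at RT on BSA-blocked wells coated overnight at 4° C. with peptide, or on streptavidin wells loaded 1 h with biotinylated PC-peptides at 1 μg/mL.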
For the molecule B1, the OD450 stood at 0.05 OD450.

Turning to B2, the OD450 amounted to 0.04 OD450.

The molecule B3 came in with an OD450 of 0.07 OD450.

Take B4: the OD450 amounted to 0.05 OD450.

For B5, the OD450 came to 0.04 OD450.

B6 came in with an OD450 of 0.04 OD450.

Molecule B7 had an OD450 of 0.06 OD450.

The molecule B8 registered an OD450 of 0.05 OD450.

In the case of B9, the OD450 is 0.07 OD450.

B10 registered an OD450 of 0.05 OD450.

As to B11, the OD450 was determined as 0.04 OD450.

For the molecule B12, the OD450 was determined as 0.05 OD450.

Regarding B13, the OD450 was 0.07 OD450.

Consider B14, for which the OD450 came to 0.05 OD450.

Molecule B15 showed an OD450 of 0.04 OD450.

Molecule B16 displayed an OD450 of 0.05 OD450.

Molecule B17 showed an OD450 of 0.05 OD450.

Turning to B18, the OD450 is 0.04 OD450.

For the molecule B19, the OD450 stood at 0.05 OD450.

Another experiment addresses T2, Peptide 8: …. The experiment can be described thus: scFv ELISA. Put shortly:
as §1
B1: the OD450 turned out to be 0.05 OD450.

B2 returned an OD450 of 0.04 OD450.

The molecule B3 returned an OD450 of 0.06 OD450.

B4 showed an OD450 of 0.07 OD450.

As to B5, the OD450 stood at 0.04 OD450.

Molecule B6 returned an OD450 of 0.04 OD450.

B7 registered an OD450 of 0.04 OD450.

Molecule B8 had an OD450 of 0.05 OD450.

B9 showed an OD450 of 0.06 OD450.

In the case of B10, the OD450 worked out at 0.04 OD450.

B11 returned an OD450 of 0.04 OD450.

As to B12, the OD450 was 0.05 OD450.

On to B13, for which the OD450 is 0.06 OD450.

The molecule B14 registered an OD450 of 0.04 OD450.

Turning to B15, the OD450 was found to be 0.04 OD450.

Regarding B16, the OD450 came to 0.04 OD450.

Consider B17, for which the OD450 turned out to be 0.05 OD450.

Consider B18, for which the OD450 is 0.04 OD450.

For B19, the OD450 was 0.04 OD450.
